Test results as given in publication PMC8190095, “Structural basis for inhibition of the AAA-ATPase Drg1 by diazaborine” (Nature Communications, 2021).

Tests used:
[1] = target: T1, GST-Rlp24C fragment (C-terminal fragment of the substrate protein Rlp24) (yeast, UniProt Q07915 147-199); assay: SPR; Biacore X100; 200 RU GST-Rlp24C amine-coupled on a CM5 chip, GST alone in the reference cell; 2 µM Drg1 with 1 mM ATPγS injected with or without 200 µg/ml diazaborine; 120 s association, 180 s dissociation; 20 mM HEPES-KOH, 150 mM KOAc, 5 mM Mg(OAc)2, 0.1% Tween-20, 1 mM DTT, pH 6.8; half-life from one-phase exponential decay; conditions: both partners purified
T1 construct: Rlp24, shuttling ribosome maturation factor of yeast, C-terminal fragment Rlp24C; The GST fusion was immobilised in SPR; also called Rlp24C-domain; source: purified
T1 sequence (looked up): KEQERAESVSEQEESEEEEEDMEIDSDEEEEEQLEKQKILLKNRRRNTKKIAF

[2] = target: the molecule itself; assay: cryo-EM structure; single-particle cryo-EM of full-length wild-type Drg1, 1.75 mg/ml, with 2 mM ATPγS and 200 µg/ml (740 µM) thieno-diazaborine 2b18; 20 mM HEPES-KOH, 150 mM KOAc, 5 mM Mg(OAc)2, 0.005% Tween-20, 1 mM DTT, pH 7.6; no symmetry imposed

B1: Drg1 (AAA-ATPase), full-length wild type (enzyme, yeast, UniProt P32794 1-780, looked up)
chain: MAPKSSSSGSKKKSSASSNSADAKASKFKLPAEFITRPHPSKDHGKETCTAYIHPNVLSSLEINPGSFCTVGKIGENGILVIARAGDEEVHPVNVITLSTTIRSVGNLILGDRLELKKAQVQPPYATKVTVGSLQGYNILECMEEKVIQKLLDDSGVIMPGMIFQNLKTKAGDESIDVVITDASDDSLPDVSQLDLNMDDMYGGLDNLFYLSPPFIFRKGSTHITFSKETQANRKYNLPEPLSYAAVGGLDKEIESLKSAIEIPLHQPTLFSSFGVSPPRGILLHGPPGTGKTMLLRVVANTSNAHVLTINGPSIVSKYLGETEAALRDIFNEARKYQPSIIFIDEIDSIAPNRANDDSGEVESRVVATLLTLMDGMGAAGKVVVIAATNRPNSVDPALRRPGRFDQEVEIGIPDVDARFDILTKQFSRMSSDRHVLDSEAIKYIASKTHGYVGADLTALCRESVMKTIQRGLGTDANIDKFSLKVTLKDVESAMVDIRPSAMREIFLEMPKVYWSDIGGQEELKTKMKEMIQLPLEASETFARLGISAPKGVLLYGPPGCSKTLTAKALATESGINFLAVKGPEIFNKYVGESERAIREIFRKARSAAPSIIFFDEIDALSPDRDGSSTSAANHVLTSLLNEIDGVEELKGVVIVAATNRPDEIDAALLRPGRLDRHIYVGPPDVNARLEILKKCTKKFNTEESGVDLHELADRTEGYSGAEVVLLCQEAGLAAIMEDLDVAKVELRHFEKAFKGIARGITPEMLSYYEEFALRSGSSS
notes: Drg1, hexameric type II AAA-ATPase of yeast (N-domain, D1 and D2 AAA-domains), full-length wild type; the atomic model covers amino acids 239-780 of each of the six monomers; Hexamer in the presence of nucleotide (ATPγS); also called Drg1 wild type; wild-type Drg1; source: overexpressed in yeast as GST-Drg1, purified (GSH-agarose, eluted by Prescission protease cleavage from the GST-tag)
fold slower dissociation with diazaborine against without [1]: 2 fold
stoichiometry N [2]: 6
